Patent publication US20230372552A1, “CONJUGATE OR ITS SALT COMPRISING A GASTRIN-RELEASING PEPTIDE RECEPTOR ANTAGONIST AND USES THEREOF” (ORANO MED, priority 2020, published 2023)

What was measured:
[1] = ^203Pb-conjugate biodistribution study in tumor-free immunocompetent mice
Description: After that, the mice were divided in 6 groups of 10, denoted as groups A, B, C, D, E and F respectively, each comprising 5 male and 5 female.
The mice of group A were sacrificed at 5 min post-dose injection; the mice of group B were sacrificed at 30 min post-dose injection; the mice of group C were sacrificed at 1 hour post-dose injection; the mice of group D were sacrificed at 4 hours post-dose injection whereas the mice of group E were sacrificed at 24 hours post-dose injection.
The mice of group F were placed in metabolic cages and their urinary and fecal excretions were collected at 4 hours, 24 hours and 48 hours post-dose injection; they were sacrificed at 48 hours post-dose injection. […]
The tubes were counted for two min. A standard consisting of 5 μL of the solution injected to the mice was also counted for each group of mice. […]
The excretions of the mice of group F were also counted.
The percent injected dose per gram, noted as % ID/g, was calculated for each organ collected (mean±standard deviation) whilst the percent injected dose, noted as % ID, was calculated for the excretions of the mice of group F (mean±standard deviation).

[2] = Comparative biodistribution, ACMP linker, tumor-free immunocompetent mice; type: in vivo, immunocompetent CD1 female mice; settings: 4 hours post-dose injection
Description: The study was aimed at assessing the biodistribution […] conjugate of the invention in that it comprises a linker constituted by a 4-amino-(1-carboxymethyl)piperidinyl group, of formula: […]
5 immunocompetent CD1 female mice, 7-8 weeks old, were injected intravenously with one ^212Pb-ACMP-conjugate dose.
The mice were sacrificed at 4 hour post-dose injection.
(§1) The tubes were counted for two min. Standards consisting of 5 μL of the solutions injected to the mice were also counted. The background was automatically subtracted from the counts. The standards were also used for decay correction.

subcutaneous PC-3 tumors [3] = assay: ^212Pb-conjugate biodistribution study in xenograft-bearing mice (10 μCi per 14 ng); type: in vivo, athymic nude mice
Description: 15 male athymic nude mice, 7-8 weeks old and weighting 27.74±1.87 g at study initiation, were injected subcutaneously, into the right flank, with 10^6 PC-3 human prostate cancer cells in 100 μL of RPMI-1640 medium/Matrigel™ (v/v: 1/1). […] Then each mouse received intravenously (into a tail vein) one ^212Pb-conjugate dose. […] The tubes were counted for two min. […] The background was automatically subtracted from the counts. The standard was also used for decay correction.

subcutaneous PC-3 tumors [4] = assay: Comparative biodistribution, change of chelator (DOTAM vs DOTA), xenograft-bearing mice; type: in vivo, athymic nude mice; settings: over the first 24 hours
Source text: The instant study was aimed at comparing the biodistribution of the conjugate of the invention, labelled with ^212Pb, in athymic nude mice bearing a human prostate cancer cell tumor with that of a conjugate also labelled with ^212Pb and only differing from the conjugate of the invention in that the chelator corresponds to DOTA (1,4,7,10-tetraazacyclododecane-1,4,7,10-tetraacetic acid) and is of formula:
30 male athymic nude mice, 7-8 weeks old and weighting 27.90±1.9 g at study initiation, were injected subcutaneously, into the right flank, with 10^6 PC-3 human prostate cancer cells in 100 μL of RPMI-1640 medium/Matrigel™ (v/v: 1/1). The tumors were let grow until they reached 200-300 mm^3.
Each mouse of groups A, B and C received intravenously one ^212Pb-DOTAM-conjugate dose whilst each mouse of groups […] received intravenously one ^212Pb-DOTA-conjugate dose.
as §1

For CC(C)C[C@H](NC(=O)C[C@H](O)[C@H](CC(C)C)NC(=O)[C@H](Cc1c[nH]cn1)NC(=O)CNC(=O)[C@@H](NC(=O)[C@H](C)NC(=O)[C@H](Cc1c[nH]c2ccccc12)NC(=O)[C@H](CCC(N)=O)NC(=O)[C@@H](Cc1ccccc1)NC(=O)CCNC(=O)CCNC(=O)CN1CCN(CC(N)=O)CCN(CC(N)=O)CCN(CC(N)=O)CC1)C(C)C)C(N)=O [^203Pb-conjugate, metal not drawn], which “route of elimination (urinary, fecal excretion)” value ([1]; excretions collected at 4, 24 and 48 hours post-dose) is on record?
Its value is “mainly eliminated by renal excretion”.

What about the biodistribution profile ([1]; male and female mice, 5 min to 48 hours, 10 μCi per 28 ng) of the same compound?
Its biodistribution profile is “safe biodistribution profile”.

With CC(C)C[C@H](NC(=O)C[C@H](O)[C@H](CC(C)C)NC(=O)[C@H](Cc1c[nH]cn1)NC(=O)CNC(=O)[C@@H](NC(=O)[C@H](C)NC(=O)[C@H](Cc1c[nH]c2ccccc12)NC(=O)[C@H](CCC(N)=O)NC(=O)[C@@H](Cc1ccccc1)NC(=O)CN1CCC(NC(=O)CN2CCN(CC(N)=O)CCN(CC(N)=O)CCN(CC(N)=O)CC2)CC1)C(C)C)C(N)=O [^212Pb-ACMP-conjugate, metal not drawn] as the compound, how does the “safety profile relative to the -β-Ala-β-Ala- linker conjugate” value [2] read?
Its value is “significantly lower safety profile”.

And the “uptake in kidneys relative to the -β-Ala-β-Ala- linker conjugate” value ([2]; 10 μCi per 4.1 ng)?
The value was 5 times.

Which tumor/blood ratio (subcutaneous PC-3 tumors [3]; i.v., 10 μCi per 14 ng) does the source give for CC(C)C[C@H](NC(=O)C[C@H](O)[C@H](CC(C)C)NC(=O)[C@H](Cc1c[nH]cn1)NC(=O)CNC(=O)[C@@H](NC(=O)[C@H](C)NC(=O)[C@H](Cc1c[nH]c2ccccc12)NC(=O)[C@H](CCC(N)=O)NC(=O)[C@@H](Cc1ccccc1)NC(=O)CCNC(=O)CCNC(=O)CN1CCN(CC(N)=O)CCN(CC(N)=O)CCN(CC(N)=O)CC1)C(C)C)C(N)=O [^212Pb-conjugate, metal not drawn] here?
Its tumor/blood ratio is “high”.

What about the clearance (subcutaneous PC-3 tumors [3]; mouse, in vivo, iv) of the same compound?
The clearance was “fast clearance”.

And the “tumor retention versus ^212Pb-DOTA-conjugate” value (subcutaneous PC-3 tumors [4])?
The value was “higher”.
